The results in this text go back to article doi:10.1101/2024.10.17.618658.

The target in test [1] is human Juno glycosylated ectodomain (ECD), wild type, with C-terminal SpyTag (human) (UniProt A6ND01). Briefly: flow cytometry-based bead-binding assay. Background: Flow cytometry measures light scatter and fluorescence of single cells or particles in a stream.
Test [2] deals with human Juno ectodomain, infertility-associated variant H177Q, with C-terminal SpyTag (human) (UniProt A6ND01). Briefly: AFM-based single-molecule force spectroscopy.
Test [3] deals with human Juno glycosylated ectodomain (ECD), wild type, with C-terminal SpyTag (human) (UniProt A6ND01). Put plainly: AFM-based single-molecule force spectroscopy.
Test [4] concerns the target human Juno ectodomain, infertility-associated variant H177Q, with C-terminal SpyTag (human) (UniProt A6ND01). Put plainly: flow cytometry-based bead-binding assay.

In general, Kd refers to the equilibrium constant for the complex coming apart. A low value points to a tighter complex. In turn, “human Izumo1 ectodomain K150A with C-terminal SpyTag (from UniProt Q8IYV9 22-292) (domain or fragment)” showed a Kd in test [1] of 0.11 µM.

In test [2], “human Izumo1 glycosylated ectodomain (ECD), wild type, with C-terminal SpyTag (from UniProt Q8IYV9 22-292) (domain or fragment)” displayed an average median peak bond lifetime under clamped force (40-50 pN) of 0.17 s. Also, in test [3], the median bond lifetime under clamped force (before the slip-to-catch transition) came to 0.02 s and the median bond lifetime under clamped force (peak of the catch bond, 40-50 pN) was determined as 0.15 s. Besides, in test [4], the Kd came to 0.064 µM. Moreover, the Kd in test [1] worked out at 0.045 µM.
